Test results as given in US20220125947A1 (published 2022).
Residue numbers refer to the chain shown, from its start.

T1: T cell receptor (TCR) Vγ9 (TRGV9) (human, UniProt Q99603 21-122)
T1 chain (looked up): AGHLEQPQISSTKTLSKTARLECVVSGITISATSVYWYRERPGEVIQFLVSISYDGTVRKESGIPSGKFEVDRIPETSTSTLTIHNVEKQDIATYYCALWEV

B1: VG9B413 (antibody, human IgG1, kappa)
heavy: not shown
light: EIVMTQSPGTLSLSPGDRATLSCRASQSVASSYLAWYQQKPGQSPRLLIYGASSRATGIPDRFSGSGSGTDFTLTISRLEPEDFAVYYCQQYGSSPPYTFGQGTKVEIKRTVAAPSVFIFPPSDEQLKSGTASVVCLLNNFYPREAKVQWKVDNALQSGNSQESVTEQDSKDSTYSLSSTLTLSKADYEKHKVYACEVTHQGLSSPVTKSFNRGEC
B2: VG9B403 (antibody, human IgG1, kappa)
heavy: not shown
light: B1 light with E1D
B3: VG9B384 (antibody, human IgG1, lambda, V domains shown)
VH: QVQLQESGPALVKPTQTLTLTCTFSGFSLSSSGMCVSWIRQPPGKALEWLTLIDWFDDKYYSTSLKTRLTISKDTSKNQVVLTMTNMDPVDTATYYCARIRGTGAYYYGLDVWGQGTMVTVSS
VL: SYELMQPPSVSVSPGQTASITCSGNELGDKYASWYQQQPGQSPVLVIYQDNKRPSGIPERFSGSNSGNTATLTISGTQAMDEADYYCQAWDSSKVVFGGGTKLTVLG
B4: VG9B67 (antibody, human IgG1, kappa, V domains shown)
VH: EVQLVESGGGLVKPGGSLRLSCAASGFTFSSYTMNWVRQAPGKGLEWVSSISSSSSYIDYAESVKGRFTISRDNAKNSLYLQMNSLRAEDTAVYYCARDGDILATIRGSFDYWGQGTTVTVSS
VL: DIVMTQTPLSLPVTPGEPASISCRSSQSLLDSDAGNTYLDWYLQKPGQSPQLLIYTLSYRASGVPDRFSGSGSGTDFTLKISRVEAEDVAIYYCMQRIEFPITFGQGTKVEIKR
B5: VG9B127 (antibody, human IgG1, kappa, V domains shown)
VH: B4 VH with E1Q, A23T, S30G, S31A, Y60F, N84I, L103V, A104S, T117A, T118L
VL: B4 VL with D1E, T7S, A34D, A90G
B6: VG9B36 (antibody, human IgG1, kappa, V domains shown)
VH: QVQLVESGGGLVKPGGSLRLSCASSGFTFSSYGMYWVRQAPGKGLEWVSSISTGSSYIYYADSVKGRFTISRDNAKNSLYLQMNSLRAEDTAVYYCARDKGLAVTGYIMDVWGQGTTVTVSS
VL: EIVLTQSPSSLSASVGDRVTITCQASQDISNYLNWYQQKPGKAPKLLIYDASNLETGVPSRFSGSGSGTDFTFTISSLQPEDIAIYYCQQYDNLPMYTFGQGTKVEIKR
B7: VG9B44 (antibody, human IgG1, kappa, V domains shown)
VH: QVQLQQSGPGLVKPSQTLSLTCAISGDSVSSNSAAWNWIRQSPSRGLEWLGRTYYRSKWYNDYPISVKSRISINPDTSKNQFSLQLNSVTPEDTAVYYCARESGSYYTDGFDIWGQGTMVTVSS
VL: DIQMTQSPSFLSASVGDRVTITCRASQGISSYLAWYQQKPGKAPKLLIYAASTLQSGVPSRFSGSGSGTEFTLTISSLQPEDFATYYCQEFNSYPYTFGQGTKLEIKR
B8: VG9B191 (antibody, human IgG1, lambda, V domains shown)
VH: EVQLVQSGGGLVKPGGSLRLSCAASGFTFSRYSMNWVRQAPGKGLEGVSSISSSSSYIYYADSVKGRFTISRDNAKNSLYLQMNSLRAEDTAVYYCARDGPTVNWDYYFDLWGRGTLVTVSS
VL: QSVLTQPPSVSAAPGQKVTISCSGSSSNIGNNYVSWYQQLPGTAPKLLIYDNNKRPSGIPDRFSGSKSGTSATLGITGLQTGDEADYYCGTWDSSLSTSVVFGGGTKLTVLG
B9: VG9B402 (antibody, human IgG1, kappa)
heavy: not shown
light: DIQMTQSPSSVSASVGDRVTITCRASQGINSWLAWYQQKPGNAPKLLIYAASSLQSGVPSRFSGIGSGTDFIFTISSLQPEDFASYYCQQANSFPWTFGQGTKVDIKRTVAAPSVFIFPPSDEQLKSGTASVVCLLNNFYPREAKVQWKVDNALQSGNSQESVTEQDSKDSTYSLSSTLTLSKADYEKHKVYACEVTHQGLSSPVTKSFNRGEC
Throughout, for CD25+ (Vg9+ cells), flow staining: test concentration or dose not given here.
Throughout, for CD71+ (Vg9+ cells), flow staining: test concentration or dose not given here.
Throughout, for Granzyme B, Luminex (supernatant): unit not given here.
Throughout, for IL6, Luminex (supernatant): unit not given here.
Throughout, for TNFα, Luminex (supernatant): unit not given here.

Target: T1, T cell receptor (TCR) Vγ9 (TRGV9)
Assay: cell-based or functional assay
With B1 the “CD25+ (Vg9+ cells), flow staining” value was 44.9%, the “CD71+ (Vg9+ cells), flow staining” value was 98.8% and the “Granzyme B, Luminex (supernatant)” value was 5800. For the same binder, the “IFNγ, Luminex (supernatant)” value was 2830, the “IL6, Luminex (supernatant)” value was 1960 and the “TNFα, Luminex (supernatant)” value was 229. For the same binder, the “Vg9 T cell %, flow staining” value was 13.3%. For B2, the “CD25+ (Vg9+ cells), flow staining” value was 36.2%, the “CD71+ (Vg9+ cells), flow staining” value was 97.5% and the “Granzyme B, Luminex (supernatant)” value was 3020. The “IFNγ, Luminex (supernatant)” value was 1390, the “IL6, Luminex (supernatant)” value was 175 and the “TNFα, Luminex (supernatant)” value was 102. The “Vg9 T cell %, flow staining” value was 7.2%. With B3 the “CD25+ (Vg9+ cells), flow staining” value was 26.4%, the “CD71+ (Vg9+ cells), flow staining” value was 89.9% and the “Granzyme B, Luminex (supernatant)” value was 2300. The “IFNγ, Luminex (supernatant)” value was 1100, the “IL6, Luminex (supernatant)” value was 610 and the “TNFα, Luminex (supernatant)” value was 3740. The “Vg9 T cell %, flow staining” value was 3.4%. In the case of B4, the “CD25+ (Vg9+ cells), flow staining” value is reported as 28.5%, the “CD71+ (Vg9+ cells), flow staining” value is reported as 87.4% and the “Granzyme B, Luminex (supernatant)” value is reported as 2550. The “IFNγ, Luminex (supernatant)” value was 972, the “IL6, Luminex (supernatant)” value was 365 and the “TNFα, Luminex (supernatant)” value was 144. For the same binder, the “Vg9 T cell %, flow staining” value was 14%. For B5, the “CD25+ (Vg9+ cells), flow staining” value was 37.3%, the “CD71+ (Vg9+ cells), flow staining” value was 96.5% and the “Granzyme B, Luminex (supernatant)” value was 2450. The “IFNγ, Luminex (supernatant)” value was 1170, the “IL6, Luminex (supernatant)” value was 348 and the “TNFα, Luminex (supernatant)” value was 709. The “Vg9 T cell %, flow staining” value was 11.2%. With B6 the “CD25+ (Vg9+ cells), flow staining” value was 29.1%, the “CD71+ (Vg9+ cells), flow staining” value was 89.4% and the “Granzyme B, Luminex (supernatant)” value was 3890. The “IFNγ, Luminex (supernatant)” value was 2580, the “IL6, Luminex (supernatant)” value was 607 and the “TNFα, Luminex (supernatant)” value was 188. For the same binder, the “Vg9 T cell %, flow staining” value was 7.8%. With B7 the “CD25+ (Vg9+ cells), flow staining” value was 45.4%, the “CD71+ (Vg9+ cells), flow staining” value was 98.8% and the “Granzyme B, Luminex (supernatant)” value was 3030. For the same binder, the “IFNγ, Luminex (supernatant)” value was 1150, the “IL6, Luminex (supernatant)” value was 587 and the “TNFα, Luminex (supernatant)” value was 198. The “Vg9 T cell %, flow staining” value was 14.4%. With B8 the “CD25+ (Vg9+ cells), flow staining” value was 42.4%, the “CD71+ (Vg9+ cells), flow staining” value was 93.6% and the “Granzyme B, Luminex (supernatant)” value was 3370. The “IFNγ, Luminex (supernatant)” value was 1380, the “IL6, Luminex (supernatant)” value was 400 and the “TNFα, Luminex (supernatant)” value was 7320. For the same binder, the “Vg9 T cell %, flow staining” value was 5.2%. For B9, the “CD25+ (Vg9+ cells), flow staining” value was 45.5%, the “CD71+ (Vg9+ cells), flow staining” value was 99.1% and the “Granzyme B, Luminex (supernatant)” value was 4500. The “IFNγ, Luminex (supernatant)” value was 2370, the “IL6, Luminex (supernatant)” value was 433 and the “TNFα, Luminex (supernatant)” value was 376. The “Vg9 T cell %, flow staining” value was 9.5%.
